Laboratory results from patent US20080044360A1 (COLLAGEN MEDICAL, published 2008).
Bridge positions count the residues as written; N and C are the ends. Square brackets hold non-standard residues; d marks the D form. Primed or numbered codes have the meaning given here. Side chains are listed from the residue outwards. Ends that are not written are not given here. Gd^D = GdDOTAGA (gadolinium DOTAGA chelate); Bip = N[C@@H](Cc1ccc(-c2ccccc2)cc1)C(=O)O; Gd^T(3) = GdDTPA attached via thiourea; Phg = N[C@H](C(=O)O)c1ccccc1; Dab = NCC[C@H](N)C(=O)O; Gd^T″ = GdDTPA-thiourea; Dap = NC[C@H](N)C(=O)O

B1: Compound ID 977 (peptide)
peptide: {Gd^T(3)}-GK([Gly-Gd^T(3)])WHCTTYFPHHYCLY[Bip]K(Gd^T(3))
modifications: disulfide 5-14; not fully specified (C-terminus)
B2: Compound ID 986 (peptide)
peptide: {Gd^T(3)}-GK([Gly-Gd^T(3)])WHCYTYFPHHYCLY[Phg]K(Gd^T(3))
modifications: disulfide 5-14; not fully specified (C-terminus)
B3: Compound ID 1007 (peptide)
peptide: {Gd^T″}-G[Dab]([Gly-Gd^T″])WHCYTK(Gd^T″)FPHHYCVY[Bip]
modifications: disulfide 5-14
B4: Compound ID 995 (peptide)
peptide: {Gd^T″}-GK([Gly-Gd^T″])WHCYTK(Gd^T″)FPHHYCLYGK(Gd^T″)
modifications: disulfide 5-14 (inferred)
B5: Compound ID 1015 (peptide)
peptide: {Gd^D}-K(Gd^D)K(Gd^D)GWHCYTYFPHHYCTYG
modifications: disulfide 6-15 (inferred)
B6: Compound ID 1005 (peptide)
peptide: {Gd^T″}-GK([Gly-Gd^T″])WHCYT[Dab](Gd^T″)FPHHYCVY[Bip]
modifications: disulfide 5-14
B7: Compound ID 1001 (peptide)
peptide: {Gd^D}-GK([Gly-Gd^D])WHCTTK(Gd^D)FPHHYCLY[Bip]
modifications: disulfide 5-14
B8: Compound ID 1004 (peptide)
peptide: {Gd^T″}-GK([Gly-Gd^T″])WHCYTK(Gd^T″)FPHHYCVY[Bip]
modifications: disulfide 5-14
B9: Compound ID 1012 (peptide)
peptide: {Gd^T″}-GK([Gly-Gd^T″])WHCYTK(Gd^T″)FPHHYCK(Gd^T″)Y[Bip]
modifications: disulfide 5-14
B10: Compound ID 1008 (peptide)
peptide: {Gd^T″}-K(Gd^T″)WHCYTK(Gd^T″)FPHHYCVY[Bip]
modifications: disulfide 4-13
B11: Compound ID 1009 (peptide)
peptide: {Gd^T″}-GK([Gly-Gd^T″])WHCYTK(Gd^T″)FPHHYCVY[Bip]R
modifications: disulfide 5-14
B12: Compound ID 1006 (peptide)
peptide: {Gd^T″}-GK([Gly-Gd^T″])WHCYT[Dap](Gd^T″)FPHHYCVY[Bip]
modifications: disulfide 5-14
B13: Compound ID 1010 (peptide)
peptide: {Gd^T″}-GK([Gly-Gd^T″])WHCYTK(Gd^T″)FPHHYCVYYY
modifications: disulfide 5-14 (inferred)
B14: Compound ID 1002 (peptide)
peptide: {Gd^T″}-[Dap](Gd^T″)[Dap]([Dap-Gd^T″-Gd^T″])WHCYTYFPHHYCVYG
modifications: disulfide 5-14; also: X2: inner Dap bears two Gd^T
B15: Compound ID 981 (peptide)
peptide: {Gd^T″}-GYK([Tyr-Gly-Gd^T″])WHCTTYFPHHYCLYG
modifications: disulfide 6-15 (inferred); not fully specified (C-terminus)
B16: Compound ID 983 (peptide)
peptide: {Gd^T″}-GFK([Phe-Gly-Gd^T″])WHCTTYFPHHYCLYG
modifications: disulfide 6-15 (inferred); not fully specified (C-terminus)
B17: Compound ID 982 (peptide)
peptide: {Gd^T″}-GVK([Val-Gly-Gd^T″])WHCTTYFPHHYCLYG
modifications: disulfide 6-15 (inferred); not fully specified (C-terminus)
B18: Compound ID 984 (peptide)
peptide: {Gd^T″}-GHK([His-Gly-Gd^T″])WHCTTYFPHHYCLYG
modifications: disulfide 6-15 (inferred); not fully specified (C-terminus)
B19: Compound ID 1016 (peptide)
peptide: {Gd^D}-K(Gd^D)K(Gd^D)AWHCYTYFPHHYCVYG
modifications: disulfide 6-15 (inferred)
B20: Compound ID 1018 (peptide)
peptide: {Gd^D}-K(Gd^D)K(Gd^D)YWHCYTYFPHHYCVYG
modifications: disulfide 6-15 (inferred)
B21: Compound ID 1017 (peptide)
peptide: {Gd^D}-K(Gd^D)K(Gd^D)LWHCYTYFPHHYCVYG
modifications: disulfide 6-15 (inferred)
B22: SEQ ID NO 107 (peptide)
peptide: YHACYQAGCYIW
modifications: disulfide 4-9 (inferred)
notes: cyclic, disulfide
B23: SEQ ID NO 94 (peptide)
peptide: WTDCQWMDEQLWTCRWD
modifications: disulfide 4-14 (inferred)
notes: cyclic, disulfide
B24: SEQ ID NO 95 (peptide)
peptide: WTDCQWMDEQIWTCRWD
modifications: disulfide 4-14 (inferred)
notes: cyclic, disulfide
B25: SEQ ID NO 102 (peptide)
peptide: WAYCMTDPSGKYRYCQNW
modifications: disulfide 4-15 (inferred)
notes: cyclic, disulfide
B26: SEQ ID NO 6 (peptide)
peptide: TWQCSGNQKWSCEWF
modifications: disulfide 4-12 (inferred)
notes: cyclic, disulfide
B27: SEQ ID NO 17 (peptide)
peptide: DWTCSGDEYTWHCNYE
modifications: disulfide 4-13 (inferred)
notes: cyclic, disulfide
B28: SEQ ID NO 16 (peptide)
peptide: DWTCSGDEYYWHCNYE
modifications: disulfide 4-13 (inferred); not fully specified (C-terminus)
notes: cyclic, disulfide
B29: SEQ ID NO 14 (peptide)
peptide: DWTCRGDEYTWHCNYE
modifications: disulfide 4-13 (inferred)
notes: cyclic, disulfide
B30: SEQ ID NO 15 (peptide)
peptide: DWTCYGDEYTWHCNYE
modifications: disulfide 4-13 (inferred); not fully specified (C-terminus)
notes: cyclic, disulfide
B31: SEQ ID NO 5 (peptide)
peptide: NWKCWGVVKWECIWA
modifications: disulfide 4-12 (inferred)
notes: cyclic, disulfide
B32: SEQ ID NO 8 (peptide)
peptide: GWQCFGASDWHCTWV
modifications: disulfide 4-12 (inferred)
notes: cyclic, disulfide
B33: SEQ ID NO 103 (peptide)
peptide: YPACDDQTHLWNLACWPA
modifications: disulfide 4-15 (inferred)
notes: cyclic, disulfide
B34: SEQ ID NO 93 (peptide)
peptide: WWACQKGQHDWEKCHWL
modifications: disulfide 4-14 (inferred)
notes: cyclic, disulfide
B35: SEQ ID NO 96 (peptide)
peptide: WQLCSSRNDHVAYCFVS
modifications: disulfide 4-14 (inferred)
notes: cyclic, disulfide
B36: SEQ ID NO 101 (peptide)
peptide: WWTCHMTWSGQWDSCKWH
modifications: disulfide 4-15 (inferred)
notes: cyclic, disulfide
B37: SEQ ID NO 100 (peptide)
peptide: WWGCRQGTGEHWSHCMWF
modifications: disulfide 4-15 (inferred)
notes: cyclic, disulfide
B38: SEQ ID NO 97 (peptide)
peptide: WISCESSEEKISYCWRA
modifications: disulfide 4-14 (inferred)
notes: cyclic, disulfide
B39: SEQ ID NO 9 (peptide)
peptide: TWNCYGVTEWHCYMI
modifications: disulfide 4-12 (inferred)
notes: cyclic, disulfide
B40: SEQ ID NO 7 (peptide)
peptide: NWYCTGTKSWECFWK
modifications: disulfide 4-12 (inferred)
notes: cyclic, disulfide

What follows are binders tested against T1, rat collagen, acid soluble, type I, rat tail (Upstate 08-115) (rat, UniProt P02454 152-1207; P02466 86-1125) (assay: dried collagen assay).
T1 construct: tissue extract, gelled and dried in wells; also called dried rat collagen
T1 sequence (P02454 152-1207, chain 1 of 2): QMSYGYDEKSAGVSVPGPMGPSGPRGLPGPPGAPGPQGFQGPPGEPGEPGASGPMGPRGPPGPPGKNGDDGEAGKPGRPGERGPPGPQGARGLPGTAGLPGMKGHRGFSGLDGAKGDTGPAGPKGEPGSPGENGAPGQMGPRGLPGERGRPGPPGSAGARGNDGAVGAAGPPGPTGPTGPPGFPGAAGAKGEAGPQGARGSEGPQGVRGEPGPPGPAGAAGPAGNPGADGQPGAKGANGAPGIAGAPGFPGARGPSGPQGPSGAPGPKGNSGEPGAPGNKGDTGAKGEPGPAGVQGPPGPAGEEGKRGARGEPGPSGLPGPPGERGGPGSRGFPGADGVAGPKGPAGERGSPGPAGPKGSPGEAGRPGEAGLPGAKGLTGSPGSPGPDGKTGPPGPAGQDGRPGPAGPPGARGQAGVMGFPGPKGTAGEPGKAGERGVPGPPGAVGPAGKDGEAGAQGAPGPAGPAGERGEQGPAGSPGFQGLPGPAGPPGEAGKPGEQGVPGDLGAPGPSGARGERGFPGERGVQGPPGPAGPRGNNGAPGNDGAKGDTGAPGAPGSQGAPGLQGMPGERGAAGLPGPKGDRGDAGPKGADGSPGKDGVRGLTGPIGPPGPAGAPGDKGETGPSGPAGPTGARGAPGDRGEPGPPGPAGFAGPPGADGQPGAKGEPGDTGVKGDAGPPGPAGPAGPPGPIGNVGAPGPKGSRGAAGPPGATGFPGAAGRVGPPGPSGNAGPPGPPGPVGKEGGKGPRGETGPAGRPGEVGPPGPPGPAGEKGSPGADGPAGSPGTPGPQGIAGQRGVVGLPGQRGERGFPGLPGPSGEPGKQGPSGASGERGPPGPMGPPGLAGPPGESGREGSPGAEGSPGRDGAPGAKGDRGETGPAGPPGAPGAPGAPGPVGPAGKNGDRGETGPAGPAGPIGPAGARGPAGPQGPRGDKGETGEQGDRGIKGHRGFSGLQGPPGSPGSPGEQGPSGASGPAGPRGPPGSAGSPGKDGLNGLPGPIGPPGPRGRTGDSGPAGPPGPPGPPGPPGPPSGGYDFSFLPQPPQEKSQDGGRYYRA
T1 sequence (P02466 86-1125, chain 2 of 2): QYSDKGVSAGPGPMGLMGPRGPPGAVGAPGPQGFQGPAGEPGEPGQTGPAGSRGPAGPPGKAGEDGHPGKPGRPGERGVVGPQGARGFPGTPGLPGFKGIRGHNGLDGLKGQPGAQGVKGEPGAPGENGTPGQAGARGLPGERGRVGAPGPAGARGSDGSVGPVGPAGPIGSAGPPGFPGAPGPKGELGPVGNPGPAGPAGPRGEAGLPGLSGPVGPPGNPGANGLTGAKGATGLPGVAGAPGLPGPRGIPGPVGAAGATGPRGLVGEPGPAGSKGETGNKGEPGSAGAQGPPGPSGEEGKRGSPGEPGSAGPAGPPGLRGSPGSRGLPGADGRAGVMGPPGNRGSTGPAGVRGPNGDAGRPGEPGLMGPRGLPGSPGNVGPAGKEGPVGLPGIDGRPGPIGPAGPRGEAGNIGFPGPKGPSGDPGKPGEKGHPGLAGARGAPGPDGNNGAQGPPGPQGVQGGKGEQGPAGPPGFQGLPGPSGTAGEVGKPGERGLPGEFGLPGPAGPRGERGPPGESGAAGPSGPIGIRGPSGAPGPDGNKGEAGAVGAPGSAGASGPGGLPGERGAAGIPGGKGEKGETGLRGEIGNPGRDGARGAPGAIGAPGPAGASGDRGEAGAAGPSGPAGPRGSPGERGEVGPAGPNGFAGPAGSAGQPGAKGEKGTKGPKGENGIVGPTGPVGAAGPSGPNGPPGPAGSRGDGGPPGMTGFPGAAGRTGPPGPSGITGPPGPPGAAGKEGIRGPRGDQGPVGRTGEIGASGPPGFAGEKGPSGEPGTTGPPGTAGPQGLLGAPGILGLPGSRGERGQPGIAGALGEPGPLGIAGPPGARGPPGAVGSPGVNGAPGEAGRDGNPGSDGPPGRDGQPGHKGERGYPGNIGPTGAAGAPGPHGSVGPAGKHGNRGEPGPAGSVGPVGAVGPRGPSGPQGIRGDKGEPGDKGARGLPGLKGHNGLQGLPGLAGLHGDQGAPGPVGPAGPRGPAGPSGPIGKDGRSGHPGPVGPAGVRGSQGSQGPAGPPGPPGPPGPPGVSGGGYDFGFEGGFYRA

Point of comparison: B6, “% bound” value 95%. Against it:
- B1 — lower, 43%
- B2 — lower, 67%
- B3 — lower, 92%
- B4 — lower, 42%
- B5 — lower, 30%
- B7 — lower, 81%
- B8 — lower, 90%
- B9 — lower, 92%
- B10 — lower, 93%
- B11 — higher, 96%
- B12 — lower, 87%
- B13 — lower, 89%
- B14 — lower, 45%
- B15 — lower, 81%
- B16 — lower, 59%
- B17 — lower, 47%
- B18 — lower, 69%
- B19 — lower, 50%
- B20 — lower, 55%
- B21 — lower, 18%

These binders were tested against T2, human collagen type I, acid soluble, extracted from placenta (Sigma C7774) (human, UniProt P02452 162-1218; P08123 80-1119) (assay: dried collagen assay).
T2 construct: tissue extract, gelled and dried in wells; also called dried human collagen; h-Collagen
T2 sequence (P02452 162-1218 limits assumed, chain 1 of 2): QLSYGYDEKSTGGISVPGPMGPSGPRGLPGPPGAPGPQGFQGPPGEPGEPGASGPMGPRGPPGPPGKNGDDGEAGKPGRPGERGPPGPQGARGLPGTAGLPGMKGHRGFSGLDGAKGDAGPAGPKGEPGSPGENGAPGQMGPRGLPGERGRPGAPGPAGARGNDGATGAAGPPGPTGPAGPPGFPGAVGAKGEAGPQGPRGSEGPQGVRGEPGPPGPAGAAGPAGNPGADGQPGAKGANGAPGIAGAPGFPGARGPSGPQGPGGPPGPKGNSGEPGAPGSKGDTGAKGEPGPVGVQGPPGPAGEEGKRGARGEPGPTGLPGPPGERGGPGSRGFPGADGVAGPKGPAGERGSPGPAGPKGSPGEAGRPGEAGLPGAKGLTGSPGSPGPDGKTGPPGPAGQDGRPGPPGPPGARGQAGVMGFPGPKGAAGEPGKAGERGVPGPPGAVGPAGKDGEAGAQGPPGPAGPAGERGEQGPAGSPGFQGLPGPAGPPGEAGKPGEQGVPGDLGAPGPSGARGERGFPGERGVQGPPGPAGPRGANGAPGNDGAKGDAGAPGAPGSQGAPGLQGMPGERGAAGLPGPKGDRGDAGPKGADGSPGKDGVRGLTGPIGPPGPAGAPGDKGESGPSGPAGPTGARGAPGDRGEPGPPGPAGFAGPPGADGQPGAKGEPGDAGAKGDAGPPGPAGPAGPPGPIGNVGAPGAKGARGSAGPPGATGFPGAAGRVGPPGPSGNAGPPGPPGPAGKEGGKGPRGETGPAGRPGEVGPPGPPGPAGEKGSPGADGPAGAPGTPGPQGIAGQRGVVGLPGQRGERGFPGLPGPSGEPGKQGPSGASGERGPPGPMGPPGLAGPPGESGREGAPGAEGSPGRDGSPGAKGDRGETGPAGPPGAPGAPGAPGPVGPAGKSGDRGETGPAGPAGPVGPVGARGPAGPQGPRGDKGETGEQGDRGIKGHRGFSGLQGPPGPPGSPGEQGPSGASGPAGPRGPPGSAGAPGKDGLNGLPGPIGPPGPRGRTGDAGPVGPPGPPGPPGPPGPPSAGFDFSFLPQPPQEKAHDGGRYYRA
T2 sequence (P08123 80-1119 limits assumed, chain 2 of 2): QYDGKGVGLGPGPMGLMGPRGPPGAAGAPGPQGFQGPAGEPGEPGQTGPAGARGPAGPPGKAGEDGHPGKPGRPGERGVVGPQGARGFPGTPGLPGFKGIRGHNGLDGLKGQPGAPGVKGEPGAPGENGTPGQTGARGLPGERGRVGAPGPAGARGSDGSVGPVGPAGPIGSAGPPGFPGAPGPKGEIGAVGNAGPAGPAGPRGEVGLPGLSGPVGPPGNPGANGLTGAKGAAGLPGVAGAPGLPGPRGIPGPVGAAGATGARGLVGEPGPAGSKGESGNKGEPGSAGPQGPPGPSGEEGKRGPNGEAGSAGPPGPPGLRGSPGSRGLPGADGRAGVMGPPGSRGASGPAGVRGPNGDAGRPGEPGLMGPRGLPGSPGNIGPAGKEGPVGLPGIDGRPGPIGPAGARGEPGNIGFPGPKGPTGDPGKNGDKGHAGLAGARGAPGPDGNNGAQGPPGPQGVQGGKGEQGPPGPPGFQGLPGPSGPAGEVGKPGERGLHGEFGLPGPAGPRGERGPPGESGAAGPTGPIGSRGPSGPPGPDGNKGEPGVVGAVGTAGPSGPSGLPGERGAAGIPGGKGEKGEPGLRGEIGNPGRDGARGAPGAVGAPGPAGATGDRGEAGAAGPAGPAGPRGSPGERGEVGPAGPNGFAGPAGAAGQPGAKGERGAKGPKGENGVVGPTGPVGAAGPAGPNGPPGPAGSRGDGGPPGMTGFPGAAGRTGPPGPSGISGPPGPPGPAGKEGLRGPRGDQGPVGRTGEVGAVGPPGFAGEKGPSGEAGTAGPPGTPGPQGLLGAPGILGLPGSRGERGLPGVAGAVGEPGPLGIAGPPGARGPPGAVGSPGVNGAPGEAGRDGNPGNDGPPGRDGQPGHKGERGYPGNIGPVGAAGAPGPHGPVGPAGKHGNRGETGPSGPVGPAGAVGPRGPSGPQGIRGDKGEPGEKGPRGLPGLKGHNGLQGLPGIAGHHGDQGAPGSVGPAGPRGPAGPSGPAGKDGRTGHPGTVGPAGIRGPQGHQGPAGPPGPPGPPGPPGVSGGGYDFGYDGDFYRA

Point of comparison: B21, “% bound” value 25%. Against it:
- B1 — higher, 40%
- B2 — higher, 60%
- B3 — higher, 87%
- B4 — higher, 51%
- B5 — higher, 29%
- B6 — higher, 90%
- B7 — higher, 83%
- B8 — higher, 91%
- B9 — higher, 91%
- B10 — higher, 94%
- B11 — higher, 93%
- B12 — higher, 89%
- B13 — higher, 92%
- B14 — higher, 44%
- B15 — higher, 73%
- B16 — higher, 58%
- B17 — higher, 40%
- B18 — higher, 67%
- B19 — higher, 48%
- B20 — higher, 53%

Target: T2, human collagen type I, acid soluble, …
Experiment: dried collagen assay
Remark: another data set of the same source
Description: An additional 90 μL is reserved in a HPLC glass vial as a measure of the total concentration.

Point of comparison: B34, “% bound” value 5%. Against it:
- B22 — higher, 9%
- B23 — higher, 21%
- B24 — the same, 5%
- B25 — higher, 31%
- B26 — higher, 20%
- B27 — higher, 78%
- B28 — higher, 83%
- B29 — higher, 83%
- B30 — higher, 83%
- B31 — higher, 24%
- B32 — higher, 9%
- B33 — lower, 2%
- B35 — higher, 17%
- B36 — higher, 56%
- B37 — higher, 67%
- B38 — higher, 13%
- B39 — higher, 7%
- B40 — higher, 11%
